Measured values taken from article PMC12549896, “Structural basis for antibiotic resistance by chloramphenicol acetyltransferase type A in Staphylococcus aureus” (Scientific Reports, 2025).

Key:
[1] = biological target: T1, saCAT1 (chloramphenicol acetyltransferase type A, S. aureus) (Staphylococcus aureus, UniProt P00485); experiment: DTNB colorimetric acetyltransferase assay at […] nm, FA […], at […] chloramphenicol; format: biochemical
T1 construct: gene cat; residues 1-216; four amino acids (GSLE) remain at the N-terminus after thrombin cleavage; homotrimer

[2] = tested on: O=C(N[C@H](CO)[C@H](O)c1ccc([N+](=O)[O-])cc1)C(Cl)Cl; experiment: purified protein; format: biochemical, Staphylococcus aureus; details: acetyl-CoA ([…] in assay) docked only: inter-protomer pocket; Ser140, Ser142, Tyr20, Thr25, catalytic His189
[3] = biological target: the molecule itself; experiment: crystal structure; X-ray, space group P321, 1.8 Å; hanging drop at 16 °C, 0.01 M cobalt (II) chloride, 0.1 M sodium acetate pH 4.6, 1 M 1,6-hexanediol; trimer on the crystallographic 3-fold axis, interfaces analysed with PISA

For CC(=O)O[C@H]1C[C@@]2(C)[C@@H](C[C@@H](O)[C@H]3[C@@]4(C)CC[C@@H](O)[C@@H](C)[C@@H]4CC[C@@]32C)/C1=C(\CCC=C(C)C)C(=O)O [FA, fusidic acid], the Ki [1] was 83.7 µM.

“saCAT1 (chloramphenicol acetyltransferase type A, S. aureus) (Staphylococcus aureus)” gave a Km [2] of 16.9 ± 3.0 µM.

B1: Staphylococcus aureus chloramphenicol acetyltransferase 1 (saCAT1) (enzyme)
chain: GSLEMNFNKIDLDNWKRKEIFNHYLNQQTTFSITTEIDISVLYRNIKQEGYKFYPAFIFLVTRVINSNTAFRTGYNSDGELGYWDKLEPLYTIFDGVSKTFSGIWTPVKNDFKEFYDLYLSDVEKYNGSGKLFPKTPIPENAFSLSIIPWTSFTGFNLNINNNSNYLLPIITAGKFINKGNSIYLPLSLQVHHSVCDGYHAGLFMNSIQELSDRPNDWLL
notes: four amino acids that remain at the N-terminus after thrombin cleavage of the His tag; chloramphenicol acetyltransferase encoded by the cat1 gene of Staphylococcus aureus plasmid pC194; all residues (1-216) modelled in the crystal structure; Cloned into the vector pFs91G (N-terminal 6xHis tag and thrombin site); Homotrimer in solution and in the crystal; one protomer in the asymmetric unit, the …
For B1, the “stoichiometry N” value [3] was 3.
